Results reported in patent US20260348974 (published 2026).
Blank lines part the entries; values can stand above or below the binder they belong to.

Biological target: human beta-tryptase (human, UniProt Q15661)
Experiment: BLI steady state

Sequence of human beta-tryptase (Q15661 31-275): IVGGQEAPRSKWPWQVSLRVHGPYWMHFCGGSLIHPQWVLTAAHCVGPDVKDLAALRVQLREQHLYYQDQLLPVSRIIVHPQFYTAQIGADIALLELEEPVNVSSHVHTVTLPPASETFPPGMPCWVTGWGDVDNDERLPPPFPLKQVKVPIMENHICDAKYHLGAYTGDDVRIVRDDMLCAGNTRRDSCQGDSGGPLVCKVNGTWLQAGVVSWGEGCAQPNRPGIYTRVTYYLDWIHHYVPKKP

Kd: 3.16 nM
B1: E104.v1 6DS (LC.F116C.Q124C.HC.F126C.A141C) (antibody, V domains shown)
VH: EVQLVESGPGCVKPSETLSLTCTVSRFSLIGYAITWIRQPPGKGLEWIGGISSAATTFYSSWAKSRVTISVDTSKNQFSLKLSSVTAADTAVYYCARDPRGYGAALDRLDLWGQGTCVTVSS
VL: DIQMTQSPSSLSASVGDRVTITCQSIKSVYNNRLGWYQQKCGKAPKLLIYETSILTSGVPSRFSGSGSGTDFTLTISSLQCEDFATYYCAGGFDRSGDTTFGQGTKVEIKR

Kd: 1.63 nM
B2: E104.v1 4DS (antibody, V domains shown)
VH: B1 VH
VL: B1 VL
